Measured values published in the DeepSol protein solubility set.

assay: soluble on expression in E. coli; label from the status in PepcDB or PDB records

Sequence	soluble on expression in E. coli
MDQLFYNGPPDYVEIEDRAITTEPGASIQAAPGAIWMEALPAIEGIPAGLEYLAYLDTVMVHQVKEVLEILTGWESKNKYAIRNKNGQQCYYAFEESNAWERQCCGSQRGFTMHIVDNFNKNVLIVKRELRCCADSFCGCLLGLQNICTIESLSTGLLGTVLQGYGCTNSFYNILDKDGNLIFLVDGQGCCTSCCCEDKDFTIKTPDSSVPIGSITKKWGGLLREAFTDADTFAVTFPIDLDVKLKAILLGATFLIDFVEFENNN	not soluble
MDQVVVFQKMFEQVRKEQNFSWFYSELKHHRIAHYIYYLATDNIRIITHDDTVLLLRGTRNLLKVSTTKNPAKIKEAALLHICGKSTFREYCSTLAGAGVFRWVTDVNHNKRSYYAIDNTLLYIEDVENNKPLILEHHHHHH	soluble
MDRRSQILTIAGHLFSQRGYHATSMRELARHLNLQGGSLYAHIQSKEELLLEVVRQAAERFQKVLEELPSGDPVTRMKALVKGHLRVIAEELPRATVFFHEWKHLSPPLLEEAKALRRRYEEGVQAVVEEGVRAGVFRVENVRLATLFVLSALNWTYQWYRPDGPLSLEALAEAYAELVLKALGVAASPEGERREEGGEDGEA	soluble
MDRTLYQKQMLDLVKDSKLATKLENSIFKWTNDYMETNITPPFMFENFYQDKFSDIIKHLNIKNNPYLLEAIKTGKIKPENIAFLKPEEIYPEKFEAILNKRKLEKAIKDNQATTDAFKCPRCKKRKAKIDQKQIRAGDEPMTTFVTCVECGNVQKF	not soluble
MDRTTGKPLVGIEHLRQSIIDILSTRIGTRVMRRDYGSRIAELIDAPVNSSFSIALYAAVAEALDKWEPRFKLKKIDFKMLGTGQVSLSFEGMYLPSGKPITMEGLLIQ	not soluble
MDRVIAAQVYLRICELGSLSAAARALGMSRPMVSRYLEQMESWAGARLIHRSTRRLTLTPAGEKVLLKTRGLTRIADEIAGERQRADPSGTLRVACAHFTAMQLISPLLPDFLARYPLLRLELDINNHPVSLIGERIDVAIRITDNPEAGAIARRLGVCRSLLCAAPGWMRQHGPLTTPDDLQRHNCLLYSHFASQHWQFSDAQGREASVAVNGNLSAGISSLLLEAAVAGCGIAMLPELEARGAIASGTLEVVLPEWTPKALSVYGIYLSRDYQPDGLPLFLDALQRRLGEETGHG	not soluble
MDRVLSRADKERLLELLKLPRQLWGDFGRMQQAYKQQSLLLHPDKGGSHALMQELNSLWGTFKTEVYNLRMNLGGTGFQ	soluble
MDSGVEASGYPPVGRAKILLERAVNPIPSPRRELEQYTTPADIAVRIAVDALLRGLLEGALAADLAAGTCRLGLALLLYGASRVAAVEADGRLAGLCLGAAEKLGLGGRIFFVASRVSRRRGPLAAGSVDLVATNPPFGVWRRGADWEVLEYALRLKPRAVYAIVKSGNMGFHAAKAAGLGYSTLLISREHFPIPASMPGHRSRVRRVSVDVVLFTRGG	soluble
MDSLMRVFSHRSPPPSFGFACDVGAHPSSTAQNLPMTYGSVREMIDDFSIVFGVPKYRTSKPKKVTRKFSFTRLLQPIDNLVTCPACSNIHPSDTICDACYAKVHQLTSEIKKKMMQYNPYVGEKQDKEVYVKFRGEPDAPAAVVKGKRVLEIEKERPTWFKKLTLKE	not soluble
MDSRSLSVHDGAMQTLTVPDSGLAPLLPGQRLARGVCRHLRSHDFVSVVELVPAPGLRVDVMALGPKGEIWVVECKSSRADYQSDRKWQGYLDWCDRFFFAVDEAFPVDLLPEGTGLMLADGYDAEILRIGPEGRLAPARRKAVIQGFARHAALRLQGLRDPGAFPG	not soluble
MDSSEVVKVKQASIPAPGSILSQPNTEQSPAIVLPFQFEATTFGTAETAAQVSLQTADPITKLTAPYRHAQIVECKAILTPTDLAVSNPLTVYLAWVPANSPATPTQILRVYGGQSFVLGGAISAAKTIEVPLNLDSVNRMLKDSVTYTDTPKLLAYSRAPTNPSKIPTASIQISGRIRLSKPMLIAN	soluble
MDTALYLLPVTLGDTPIESVLPSYNKEIIQGIKHFIVEDVRSARRFLKKVDREIDIDSLTFYPLNKHTSPEDISGYLKPLAGGLSMGVISEAGCPAVADPGADVVAIAQRKNLKVVPLVGPSSIILSVMGSGFSGQSFAFHGYLPIEPGERAKKIKALEQRVYAEHQTQLFIETPYRNNKMVEDILHNCRPQTRLCIAANITCEGEYIRTKTIKEWQGKVPDLTKIPCIFLLYQLEHHHHHH	not soluble
MDTLGLVESRSIAAGVNLADGMVKVAQVELVRAGTICSGRYFICLGGDRQAVQTAVSHAEQSGSALAGSYVISGVSPQVLAVLKKSVQPGTPGALGVVECRTVSAGIAAADAAVKRSGISLLRLVTGQGINGKSYFVFSGDVASVQEAADAAKTALGRHLIESVVIARPDASVVRALTSGVR	not soluble
MDTMGRHVISELWGCDFDKLNDIDFIEKTFVDAALKSGAEIREVAFHKFAPQGVSGVVIISESHLTIHTFPEHGYASIDVYTCGHLDPTIAADYIAEMLGAQTRETIELPRGMRPIEVKKAQAL	soluble
MDTPENVLQMLEAHMQSYKGNDPLGEWERYIQWVEENFPENKEYLITLLEHLMKEFLDKKKYHNDPRFISYCLKFAEYNSDLHQFFEFLYNHGIGTLSSPLYIAWAGHLEAQGELQHASAVLQRGIQNQAEPREFLQQQYRLFQTRLTETHLPAQARTSEPLHNVQVLNQMITSKSNPGNNMACISKNQGSELSGVISSACDKESNMERRVITISKSEYSVHSSLASKVDVEQVVMYCKEKLIRGESEFSFEELRAQKYNQRRKHEQWVNEDRHYMKRKEANAFEEQLLKQKMDELHKKLHQVVETSHEDLPASQERSEVNPARMGPSVGSQQELRAPCLPVTYQQTPVNMEKNPREAPPVVPPLANAISAALVSPATSQSIAPPVPLKAQTVTDSMFAVASKDAGCVNKSTHEFKPQSGAEIKEGCETHKVANTSSFHTTPNTSLGMVQATPSKVQPSPTVHTKEALGFIMNMFQAPTLPDISDDKDEWQSLDQNEDAFEAQFQKNVRSSGAWGVNKIISSLSSAFHVFEDGNKENYGLPQPKNKPTGARTFGERSVSRLPSKPKEEVPHAEEFLDDSTVWGIRCNKTLAPSPKSPGDFTSAAQLASTPFHKLPVESVHILEDKENVVAKQCTQATLDSCEENMVVPSRDGKFSPIQEKSPKQALSSHMYSASLLRLSQPAAGGVLTCEAELGVEACRLTDTDAAIAEDPPDAIAGLQAEWMQMSSLGTVDAPNFIVGNPWDDKLIFKLLSGLSKPVSSYPNTFEWQCKLPAIKPKTEFQLGSKLVYVHHLLGEGAFAQVYEATQGDLNDAKNKQKFVLKVQKPANPWEFYIGTQLMERLKPSMQHMFMKFYSAHLFQNGSVLVGELYSYGTLLNAINLYKNTPEKVMPQGLVISFAMRMLYMIEQVHDCEIIHGDIKPDNFILGNGFLEQDDEDDLSAGLALIDLGQSIDMKLFPKGTIFTAKCETSGFQCVEMLSNKPWNYQIDYFGVAATVYCMLFGTYMKVKNEGGECKPEGLFRRLPHLDMWNEFFHVMLNIPDCHHLPSLDLLRQKLKKVFQQHYTNKIRALRNRLIVLLLECKRSRK	soluble
MDTSTNLDIGAQLIVEECPSTYSLTGMPDIKIEHPLDPNSEEGSAQGVAMGMKFILPNRFDMNVCSRFVKSLNEEDSKNIQDQVNSDLEVASVLFKAECNIHTSPSPGIQVRHVYTPSTTKHFSPIKQSTTLTNKHRGNEVSTTPLLANSLSVHQLAAQGEMLYLATRIEQENVINHTDEEGFTPLMWAAAHGQIAVVEFLLQNGADPQLLGKGRESALSLACSKGYTDIVKMLLDCGVDVNEYDWNGGTPLLYAVHGNHVKCVKMLLESGADPTIETDSGYNSMDLAVALGYRSVQQVIESHLLKLLQNIKE	soluble
MDTVVMSWWDFGHLFAVAADRPVTFDGGSQNTPRAYWIGKALTTSNETLSRGILTMLSTSGDLAYETLDNYTDDSGKTAEILTATLGLPREEARAVMTGRYGLSDKEADSVLRYSHPAKPKPFVLVLSSDMLGKAPWWTYFGTWDFKKKTGSRLEHHHHHH	not soluble
MDVAGEKQQRKGEAIARIEAEKNAYTVAQLADEYFERMIAGRWKHPNIVRSRIEKDIKPAIGSLKVEDVKPRHIDDVLKAVMKRGAPSIANDTLRWLKRMFNYAIKRHIIEYNPAAAFLEHHHHHH	not soluble
MDVASALEGNWEFRVDHKNIKIFSSKIRGSQVLGFKGEAVFEASLRKLISLFHDFGNYGKWVHQLSEMEVLHKSDELDYVVRQVLNTPWPIPKREMIVRTALHASEEGALALTMTGIPDYVPLKPDFHRVREARGGWILMPVDGGKVHVTFVMHLDPGSDIPPALSNAALFEVPFYSLLKMRDLAQNPSYKPAWPSVVDNHVTIIEDVPDKHLEHHHHHH	soluble
MDVVFPKMPHHQTVTNVRVPSSRGSAISRAHSEHRRSIDRSEPRHHHRHHVHSETPELPYTRGISKTPSVREYNVKREGQRSPSRSHRSERSPSEVRIPVTTTHTRPIAKRQSPEELDYGRFADKSQQNRFPGDHQAREEDLPYTRGISKTPSNQDSRSERTPCSDIHIPYNNPEKERAYQQSERSSYRSHKSVTPSEKSLPRNSETPELHYTRGISKTPSDRVEKSRYLSRGVSTPHTPSEVHIPYNNPEKERAYQQSHRPSSPKRRPSGRTNSPNKSSSSSKARPSAAPLEEIVHIKERYERDETIRRFFPTTTAV	not soluble
MDYQQLANQIKQWAIELGFEKVGICDVDLSEHEPALQAWLDAGYHGEMDWMARHGMMRARPAELLPGTLRVISARINYLPPQAQFASNLSDPNQAYISRYALGRDYHKLVRNQLKKLGEKIEQEVGKLGYRPFVDSAPILERPLAQKAGLGWTGKHSLILDKENGSWFFLGELLVDIPLPVDEPSENQCGKCTACITSCPTNAIVAEGVVDARRCVSYLTIEYSGVIPLEFRRAMGNRIYGCDDCQLVCPWNRFAPLTQQSDFHRRQSLNNADLVVLFEWDEATFLKNMEGSAIRRIGHQQWRRNLIIAMGNAPYSPRIIDTLQRHLGQSELLDEHIHWALEEQTQKTATPRQHARLIRIIEKGLPRDA	not soluble
MEAGFVSIGDVTFRDLEDEAIVELVRKGNTDALEYLIHKYKNFVRAKSRSYFLVGADREDIVQEGMIGLFKAIRDYKEDKLSSFKAFAELCITRQIITAIKTATRQKHIPLNSYVSLDKPIYDEESDRTLLDVISEAKVTDPEEMIISQEEYTDIESKISELLSDLERKVLSLYLDGRSYQEISEQLNRHVKSIDNALQRVKRKLERYMEMRESTTLNS	not soluble
MEAKTMKDMQKEVDAYIGQFKEGYFSPLAMMARLTEEMGELAREVNHYYGEKPKKTTEKERSIEEELGDVLFVMICMANSLNIDLETAHNIVMNKFNTRDKDRWTRIDEGEKE	not soluble
MEARAIVIIPDTLKVGFIIGGRRGQGLMSIKTPQNTWSQPVFVKLTGGSIGLQAGVQSSDVVLVFRNDRNLDNIVNGKFTLGADASVAAGPVGRNALAATDSELKAEIYSWSTARGLFAGIALDGAALQIDDSANLDVYGKGTTPRMIFEGRTAEPPSSDVIAFRDRLEEVTYTARNNLEHHHHHH	not soluble
MEATLPVLDAKTAALKRRSIRRYRKDPVPEGLLREILEAALRAPSAWNLQPWRIVVVRDPATKRALREAAFGQAHVEEAPVVLVLYADLEDALAHLDEVIHPGVQGERREAQKQAIQRAFAAMGQEARKAWASGQSYILLGYLLLLLEAYGLGSVPMLGFDPERVRAILGLPSRAAIPALVALGYPAEEGYPSHRLPLERVVLWR	soluble
